Experiment: soluble on expression in E. coli; label from the status in PepcDB or PDB records

Row | Sequence | soluble on expression in E. coli
1 | MVAAPPAVGAAMPSLDFDTSVFNKEKVSLAGHEEYIVRGGRNLFPLLPEAFKGIKQIGVIGWGSQGPAQAQNLRDSLAEAKSDIVVKIGLRKGSKSFDEARAAGFTEESGTLGDIWETVSGSDLVLLLISDAAQADNYEKIFSHMKPNSILGLSHGFLLGHLQSAGLDFPKNISVIAVCPKGMGPSVRRLYVQGKEINGAGINSSFAVHQDVDGRATDVALGWSVALGSPFTFATTLEQEYKSDIFGERGILLGAVHGIVEALFRRYTEQGMDEEMAYKNTVEGITGIISKTISKKGMLEVYNSLTEEGKKEFNKAYSASFYPCMDILYECYEDVASGSEIRSVVLAGRRFYEKEGLPAFPMGNIDQTRMWKVGEKVRSTRPENDLGPLHPFTAGVYVALMMAQIEVLRKKGHSYSEIINESVIESVDSLNPFMHARGVAFMVDNCSTTARLGSRKWAPRFDYILTQQAFVTVDKDAPINQDLISNFMSDPVHGAIEVCAELRPTVDISVPANADFVRPELRQSS | soluble
2 | MREVISIHVGQAGVQIGNACWELYCLEHGIQPDGTMPSDQQADGESFTTFFSDTGNGRYVPRSIFVDLEPTVVDEIRTGTYKKLFHPEQMITGKEDAANNYARGHYTVGKELIDTVLDRIRRLADNCSGLQGFFVFHSFGGGTGSGFTSLLMERLSVDYGKKSKLEFSIYPAPQVSTAVVEPYNSILTTHTTLEHSDCAFMVDNEAIYDICRRNLSVDRPSYTNLNRIISQVVSSITASLRFDGALNVDLNEFQTNLVPYPRIHFPLAAYTPLISADKAYHEALSVNDITNSCFEPANQMVKCDPRHGKYMAVCLLYRGDVVPKDVNTAIAAIKTKRTIQFVDWCPTGFKVGINYQPPTVVPGGDLAKVPRAVCMLSNTTAIAEAWSRLDYKFDLMYAKRAFVHWYVGEGMEEGEFTEAREDLAALEKDYEEVGADSNEGGNEEEGEEY | not soluble
3 | MGSDKIHHHHHHMFPTFFGISSIHGGQMAHSVSQAYLHISPPQVIGCHDGTTFNSYTNDDSARRYNSKSANKAPPAGQAFGCHESTTFKRTQQVNTPLDVIHPNSNIPNLPPPAFGKCPYPPWQHLDAANTIFIFPPLTVTLITNSRRVSAAAYDSNAIESVMQGTLRKMRTRLDEQGLANYQLLVGDNEVELNPFIGSSIKLVHTGNIFCCNCGKKTKKSYSQGHCFVCMKKLASCDMCIMKPETCHFAEGTCREPEWGEANCFVPHYVYLSNTSGLKVGITRHTQLPTRWIDQGATQGLPILKVSSRQLSGLIEVELAKMIADKTNWRAMLKGNADPLPLKQHAEELLPQIEQHIHSLAMAHGEYAIERLNEEIVAIDYPVSEFPTKIASHNFDKDPVVSGTLLGIKGQYLIFDTGVINLRKFTAYEVSFEAE | not soluble
4 | MGSDKIHHHHHHMSSEKLRVAAIDLGTNSFHMVIVEESEEKGIVEIDRVKDMICIGRGSISTKRLDDGAMEAGVATLRNFIVLATQRGVALHNILAFATSAIREADNRDEFIDMVRRETGLKIRVITGKEEAQFIYYGVRNAVTLRDKPDLLFDIGGGSVEFIIADKSKVHLLESRKIGVARMLERFVTTDPVSAHELHLLQQFFAAEMYGGAAEMAHELGVSRAIASSGTAQNIARMIRLGKHADGADVLNQSSFTRQEFESFYRQVIAMDASARRKLTGLDEKRVDLIVPGLILFDTIFRVFGIKDVVISDSALREGMVLHQIALIRGRDGSSQLDIRRQSVMELGYRCNWHKPHSEQVARLALMLFDELHPLHGLKERYRELLEYAAMLHNIGEFISISAHHKHSQYIIMNADLRGFSPTEIDIIGNVARYHRKQPPTERHPLYSQLKPSHRRVVDVLSGILRIANGLERGHRQNVQSITARIDQERIVLEALTQFEPDIELWAACGLKEWLEEVLGKPILIEARVR | not soluble
5 | VKRFWENVGKPNDTTDGRGTTSLAMTPISQTPGLLAEAMVDLGAIEHNVRVLREHAGHAQLMAVVKADGYGHGATRVAQTALGAGAAELGVATVDEALALRADGITAPVLAWLHPPGIDFGPALLADVQVAVSSLRQLDELLHAVRRTGRTATVTVKVDTGLNRNGVGPAQFPAMLTALRQAMAEDAVRLRGLMSHMVYADKPDDSINDVQAQRFTAFLAQAREQGVRFEVAHLSNSSATMARPDLTFDLVRPGIAVYGLSPVPALGDMGLVPAMTVKCAVALVKSIRAGEGVSYGHTWIAPRDTNLALLPIGYADGVFRSLGGRLEVLINGRRCPGVGRICMDQFMVDLGPGPLDVAEGDEAILFGPGIRGEPTAQDWADLVGTIHYEVVTSPRGRITRTYREAENR | soluble
6 | GSCEKENIGIEVTPVNAKFIITPVVIDATTGTDVTQSAEISFSKGNGTYEGTPELASESININAKYKGMTGSASVTIPALKAGQFGAKEVTIILSENFFAQEESSNSQIETTKHSGFKNNTSDYWYYITVTYTKKEGSEVIKNDYEGDDSEIKNIIDAYNKGVREDKVTLNDVQVLAHSRFSVFVDYMKTTSVYQIIEKSPKRDGNPVASFTVDSYNTIVSPKNEQIPGHGHAPSHGHGHGHGDDSNAGGGIIIAD | soluble
7 | MTRTNYQKKRMTCPVETEDITYRRKKIKGRRQAILAQFEPELVHHELIGDSCTCPDCHGTLTEIGSVVQRQELVFIPAQLKRINHVQHAYKCQTCSDNSLSDKIIKAPVPKAPLAHSLGSASIIAHTVHQKFTLKVPNYRQEEDWNKLGLSISRKEIANWHIKSSQYYFEPLYDLLRDILLSQEVIHADETSYRVLESDTQLTYYWTFLSGKHEKKGITLYHHDKRRSGLVTQEVLGDYSGYVHCDMHGAYRQLEHAKLVGCWAHVRRKFFEATPKQADKTSLGRKGLVYCDKLFALEAEWCELPPQERLVKRKEILTPLMTTFFDWCREQVVLSGSKLGLAIAYSLKHERTFRTVLEDGHIVLSNNMAERAIKSLVMGRKNWLFSQSFEGAKAAAIIMSLLETAKRHGLNSEKYISYLLDRLPNEETLAKREVLEAYLPWAKKVQTNCQ | not soluble
8 | MSNANQKITTFLMFEGKAEEAMNFYTSLFDQSEIVSISRYDENGPGKEGTVIHATFTLNGQEFMCIDSYVNHNFTFTPAMSLYVTCETEEEIDTVFHKLAQDGAILMPLGSYPFSKKFGWLNDKYGVSWQLTLAE | soluble
9 | MNAPLRFGPYAVSRFVDGVYKAPVGHLIHRQGAVALAAVVAGLEGETVDMDVNCFALSGPDGVWLIDAGCGTAWGAAYGHARAAMLAAGIQPDDVSRVILTHIHGDHALGLIDGDRPYFPNAEIWVPEADLAFFTNADARKTLPPARQGGFDLAARLLDICGAMLRPIPTGTVAEDIEAIAMPGHTPGHMGYLIGSGDARLLLWGDVLHVGELQAADPEIAFVYDIDSELAYATRLAALAEAADHGWLVSGGHLGGFFHIERRGDSFRFVPQPG | not soluble
10 | MGSDKIHHHHHHAEDMVKPIENDKDAPGTVQDVKTESLPGAVKFTYTLPSDPDLLYVLAKYTNKTGKVMEFRSSFYTNSVTVEGFGDTDTYKVELYTVDRSENRSQPQIVEVVPLTPPILSCYESLSMVSDFGGMTFEMDNKFKSDLAIYVCTPDELGDMVLAETFYSAREEIVYSVRGYDAVPRRFGIFLQDKYGNETDTLFTELTPIYERELDKTKFREMYLQNDSRVDSYDGKMEYVWNGRISKDGDSGGVGLHTGTGTKDGPAVFTFDLGVLAKLSRFALWAIQDEKHFYNDMSPRRYEVWGCATEPNPDGSWDQWVKLLDMENVKPSGSPIGILTEDDIEAAKIGDQANVPLDMPRVRYIRIKCLKNWSNNYNICFTELTFWGNDNEE | not soluble
11 | MGSDKIHHHHHHMTSANIQMAVYCFDVINAQLNREKEPPVPKEIPNVKLPLFVTWKKGHQHDLRGCIGTFSDLRLGEGLNEYAKTSAFHDSRFKPISREEVPSLQCGVSLLINFEPIHNFRDWTIGRHGVRMNFDDGHRNRSAVFLPEVAQEQGWNHVETIDHLIRKSGYGGHINDALRSALRIVRFQSSKLVLDYKDYVNYKQSHGLPLPR | not soluble
12 | NGFQKEIRGQLLNVAPHAEIGYIDNTDTDWRNLLRFTENRKGILAAAPYVSNQALLANAGEIRGVQMRGILPSEERKVVEYGDKMPAGKFEDLIPGEFDIILGVGLAEALGAEVGNKVTVITPEGNVTPAGVVPRLKQFTVVGLVKTGVYEVDNSLAMTHIQDARVLYRLDKEVAGLRLKLADPQNAPALTATLIPEAQRDAVWVRDWTYSNRSYFEAVELEKR | soluble
13 | MGSDKIHHHHHHAADHVKGDGKLTSKKISVADYNEIKVDGVIDFNYEQSDDPSTVEVTVDQNLHPYVNIEVKDRVLTIAFKGAKVDHFTKFIVKTNSKWLAAAKVSGNANFMVNSPLTGDETVIKANANSLVQLKETVTVGKLDLNVSGSANMVVNHLEADKIECDIDGSGSITIKKGNAKEGDYSIVSSGDIHAFGLAVPQLSCKVTGNGLAEVHATDNLKANVVGKGNIRYKGPTAVQQRIIGKGTVEEVKE | not soluble
14 | PVTSISHEQLQQVHAEAGLTIALSTSVGDDLFYVDHVSSEPEYAYLAENRLRRSLLRTSAGWLLLADREQRDIWAYLNSRPVADADYIEQFLYALEALRATGVCAAPGVAVEHGDGVSVALRERGRTIATLGVVGVRETIIERRDELAKICLRHAEEWGFR | soluble
15 | MGSDKIHHHHHHMPWLRFCDRDRSVHMLVAMLDLTREKAEQVMRRGPWLASMTEPFRTELLRHAHLQKFAPDQVVYRHGDAVGGMYGLVAGSLTINSAPPDAASRLIHLGMPGAWTGEGPFLTGQPRRVELRALGGAWMMHVPLDALEQMMARDPGVSRAIAMNTVFTVDVLLRIIHDLQKRAVGRRIASVLQRASWVGDMPIPLSQTDLGIMANASRQQVNTAMQRFARAGWVSYTYRSVTVSNSQALRRFSEGDGSEW | not soluble
16 | MATISSLGSSGLELEGILEKLQAAEEKKLTLITARQASYETRISAYSKIQAAVEAVQKAAATLGSIDTLSAVKAVVSGDGLSVKTAAGAVPGQYTVNIDKLATAQNLQSGELDSRTDKHGTGGSIEIVQKDGTTTTVTLGEDTSLNGIVKAINGTDGLDVRATVISDGNGKHYLMLNNKTEGTEAAVTRITVSGNQEVADILDFDAANAGASNLTVQLAAQKAELTINGIPVVSDTNTVETAIDGLTLTLTKQTAAPLTVTVSSDPSVAATAVNDFVKAYNGLQTTIADLTAFDVKAEKQSALTGDGTTRNIQSAIAAALRVATGEGTLRTLSQLGITTDPKTGSLKTDTEKLEAALRDNPADVARIFSGPFGLGEKVKLATEQILGDEGSIKIRQEGLEETLESLQNQYDRQKLSIAATIEAYRKQFVQLDVFVTQMNNTSNYLSQQFAALSGTKK | not soluble
17 | MKVFLYDTNLILASRVRSLLSSQGFEISDKEEACAGVVNLESPKGLEVVKELKEKGKKVVGYCGHKNVPLIQKAKELGVDEVIPNSQVVTSLGEILKKLCS | not soluble
18 | MPTNCAAAGCATTYNKHINISFHRFPLDPKRRKEWVRLVRRKNFVPGKHTFLCSKHFEASCFDLTGQTRRLKMDAVPTIFDFCTHI | soluble
19 | MKLKTTLFGNVYQFKDVKEVLAKANELRSGDVLAGVAAASSQERVAAKQVLSEMTVADIRNNPVIAYEDDCVTRLIQDDVNETAYNQIKNWSISELREYVLSDETSVDDIAFTRKGLTSEVVAAVAKICSNADLIYGAKKMPVIKKANTTIGIPGTFSARLQPNDTRDDVQSIAAQIYEGLSFGVGDAVIGVNPVTDDVENLSRVLDTIYGVIDKFNIPTQGCVLAHVTTQIEAIRRGAPGGLIFQSICGSEKGLKEFGVELAMLDEARAVGAEFNRIAGENCLYFETGQGSALSAGANFGADQVTMEARNYGLARHYDPFIVNTVVGFIGPEYLYNDRQIIRAGLEDHFMGKLSGISMGCDCCYTNHADADQNLNENLMILLATAGCNYIMGMPLGDDIMLNYQTTAFHDTATVRQLLNLRPSPEFERWLESMGIMANGRLTKRAGDPSLFF | soluble
